Reference: paper PMC6662836

Legend:
[1] = system: S129-phospho-alpha-synuclein (human); test: EMSA; details: 57 uM stated for GST in the comparison; 10% gel; N=3; EMSA: 20 ng DNA in 20 uL, 94 mM Tris-Cl pH 8.0, 25 mM NaCl, 1 mM EDTA, 5% ficoll; on ice 20 min then RT 30 min; 10% or 6% polyacrylamide TBE gel, 100 V …
[2] = system: alpha-synuclein (human); test: EMSA; details: 57 uM protein; 10% gel; N=3; EMSA: 20 ng DNA in 20 uL, 94 mM Tris-Cl pH 8.0, 25 mM NaCl, 1 mM EDTA, 5% ficoll; on ice 20 min then RT 30 min; 10% or 6% polyacrylamide TBE gel, 100 V …

**Q.** What does the source list for 300 bp dsDNA?
**A.** binding signal (fraction shifted) [1]: 0.58; binding signal (fraction shifted) [2]: 0.86
